# Test results reported in article PMC9388135 (Proceedings of the National Academy of Sciences of the …, 2022).
# Biological target: the molecule itself
# Experiment: SEC
Protein,binding result,stoichiometry N
"KicGAS^9-104 (domain or fragment, UniProt Q2HR80 9-104, looked up) KKDLTMEDLTAKISQLTVENRELRKALGSTADPRDRPLTATEKEAQLTATVGALSAAAAKKIEARVRTIFSKVVTQKQVDDALKGLSLRIDVCMSD",binds,
"KicGAS L17R (natural protein, UniProt Q2HR80 1-131, looked up) MAAPRGRPKKDLTMEDRTAKISQLTVENRELRKALGSTADPRDRPLTATEKEAQLTATVGALSAAAAKKIEARVRTIFSKVVTQKQVDDALKGLSLRIDVCMSDGGTAKPPPGANNRRRRGASTTRAGVDD",,2
"KicGAS L35R (natural protein, UniProt Q2HR80 1-131, looked up) MAAPRGRPKKDLTMEDLTAKISQLTVENRELRKARGSTADPRDRPLTATEKEAQLTATVGALSAAAAKKIEARVRTIFSKVVTQKQVDDALKGLSLRIDVCMSDGGTAKPPPGANNRRRRGASTTRAGVDD",binds,
"KicGAS P41S/P45I (natural protein, UniProt Q2HR80 1-131, looked up) MAAPRGRPKKDLTMEDLTAKISQLTVENRELRKALGSTADSRDRILTATEKEAQLTATVGALSAAAAKKIEARVRTIFSKVVTQKQVDDALKGLSLRIDVCMSDGGTAKPPPGANNRRRRGASTTRAGVDD",binds,
"KicGAS L35A (natural protein, UniProt Q2HR80 1-131, looked up) MAAPRGRPKKDLTMEDLTAKISQLTVENRELRKAAGSTADPRDRPLTATEKEAQLTATVGALSAAAAKKIEARVRTIFSKVVTQKQVDDALKGLSLRIDVCMSDGGTAKPPPGANNRRRRGASTTRAGVDD",binds,
